T1: Flag tagged recombinant DLL3 (Adipogen) (Homo sapiens (Human), UniProt Q9NYJ7 27-492)
T1 construct: Bought reagent; also called Flag-DLL3
T1 sequence: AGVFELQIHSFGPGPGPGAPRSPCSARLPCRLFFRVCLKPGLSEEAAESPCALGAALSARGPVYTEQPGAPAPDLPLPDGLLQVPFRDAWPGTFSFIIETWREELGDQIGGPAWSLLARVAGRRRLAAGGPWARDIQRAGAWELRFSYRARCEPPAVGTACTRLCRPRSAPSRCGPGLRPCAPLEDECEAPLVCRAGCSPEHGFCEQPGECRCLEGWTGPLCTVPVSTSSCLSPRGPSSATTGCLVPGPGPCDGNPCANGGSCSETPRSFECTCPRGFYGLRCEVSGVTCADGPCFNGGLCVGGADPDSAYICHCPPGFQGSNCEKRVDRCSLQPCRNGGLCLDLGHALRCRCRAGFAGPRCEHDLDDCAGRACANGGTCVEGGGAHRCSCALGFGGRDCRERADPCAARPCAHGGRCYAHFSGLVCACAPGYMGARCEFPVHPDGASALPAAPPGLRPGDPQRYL

T2: full length human DLL3 with N-terminal HA tag, expressed on CHO cells (human, UniProt Q9NYJ7 27-618)
T2 construct: also called Human DLL3 complete ECD
T2 sequence: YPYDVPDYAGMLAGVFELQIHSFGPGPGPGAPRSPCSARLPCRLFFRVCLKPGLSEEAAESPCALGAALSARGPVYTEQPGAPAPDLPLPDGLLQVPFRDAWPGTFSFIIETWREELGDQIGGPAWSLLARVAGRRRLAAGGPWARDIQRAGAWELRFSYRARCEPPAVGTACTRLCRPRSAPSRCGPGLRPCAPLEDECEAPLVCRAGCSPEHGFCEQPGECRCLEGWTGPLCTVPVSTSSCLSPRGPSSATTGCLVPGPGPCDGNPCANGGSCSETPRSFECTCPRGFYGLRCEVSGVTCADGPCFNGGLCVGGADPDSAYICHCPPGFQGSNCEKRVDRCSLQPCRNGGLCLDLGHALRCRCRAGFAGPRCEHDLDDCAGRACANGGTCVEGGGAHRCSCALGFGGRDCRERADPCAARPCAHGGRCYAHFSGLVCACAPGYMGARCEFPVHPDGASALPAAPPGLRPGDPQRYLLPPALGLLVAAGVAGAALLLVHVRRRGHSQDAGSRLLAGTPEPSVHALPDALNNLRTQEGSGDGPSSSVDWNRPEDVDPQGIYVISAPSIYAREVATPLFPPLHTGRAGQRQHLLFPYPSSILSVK

B1: 4H8 RSR (other)
CAR: GGGGSCPYSNPSLCGGGGSQVQLQQSGPGLVKPSQTLSLTCAISGDSVSSNSATWNWIRQSPSRGLEWLGRTYYRSKWYDDYAVSVKSRITINPDTSKNHLSLHLNSVTPEDTAVYYCAGGGLVGAPDGFDVWGQGTMVTVSSGGGGSGGGGSGGGGSGGGGSQSVLTQPPSASGTPGQRVTISCSGSSSNIGSDPVNWYQQLPGTAPKLLIYSNNQRPSGVPDRFSGSKSGTSASLAISGLQSEDEADYYCSAWDDSLNGYVFGTGTKVTVLGGGGSCPYSNPSLCGGGGSTTTPAPRPPTPAPTIASQPLSLRPEACRPAAGGAVHTRGLDFACDIYIWAPLAGTCGVLLLSLVITKRGRKKLLYIFKQPFMRPVQTTQEEDGCSCRFPEEEEGGCELRVKFSRSADAPAYQQGQNQLYNELNLGRREEYDVLDKRRGRDPEMGGKPRRKNPQEGLYNELQKDKMAEAYSEIGMKGERRRGKGHDGLYQGLSTATKDTYDALHMQALPPR
notes: member of group m45; also called 4H8-RSR anti-DLL3 CAR with safety switch, on primary T cells
B2: 2G1 RSR (other)
CAR: GGGGSCPYSNPSLCGGGGSQLQLQESGPGLVKPSETLSLTCTVSGGSISSSSYYWGWIRQPPGKGLEWIGSIYYSGNIYHNPSLKSRVSISVDTSKNQFSLRLSSVTAADTAVYYCAREIIVGATHFDYWGQGTLVTVSSGGGGSGGGGSGGGGSGGGGSAIQMTQSPSSLSASVGDRVTITCRASQGIRNDLGWYQQKPGKAPELLIYAASSLQSGVPSRFSGSGSGTDFTLTISSLQPEDFATYYCLQDYNYPLTFGPGTKVDIKGGGGSCPYSNPSLCGGGGSTTTPAPRPPTPAPTIASQPLSLRPEACRPAAGGAVHTRGLDFACDIYIWAPLAGTCGVLLLSLVITKRGRKKLLYIFKQPFMRPVQTTQEEDGCSCRFPEEEEGGCELRVKFSRSADAPAYQQGQNQLYNELNLGRREEYDVLDKRRGRDPEMGGKPRRKNPQEGLYNELQKDKMAEAYSEIGMKGERRRGKGHDGLYQGLSTATKDTYDALHMQALPPR
notes: member of group m44; also called 2G1-RSR anti-DLL3 CAR with safety switch, on primary T cells
B3: 10G1-K RSR (other)
CAR: GGGGSCPYSNPSLCGGGGSEVQLLESGGGLVQPGGSLRLSCAASGFTFSSYAMNWVRQAPGKGLEWVSTISGSGGSTYYADSVKGRFTISRDNSKNTLYLQMNSLRAEDTAVFYCAIDPEYYDILTGGDYWGQGTLVTVSSGGGGSGGGGSGGGGGSGGGGSDIQMTQSPSAMSASVGDRVTITCRASQGISNYLAWFQQKPGKVPKRLIYAASSLQSGVPSRFSGSGSGTEFTLTISSLQPEDFATYFCLQHDSFPLTFGGGTKVEIKGGGGSCPYSNPSLCGGGGSTTTPAPRPPTPAPTIASQPLSLRPEACRPAAGGAVHTRGLDFACDIYIWAPLAGTCGVLLLSLVITKRGRKKLLYIFKQPFMRPVQTTQEEDGCSCRFPEEEEGGCELRVKFSRSADAPAYQQGQNQLYNELNLGRREEYDVLDKRRGRDPEMGGKPRRKNPQEGLYNELQKDKMAEAYSEIGMKGERRRGKGHDGLYQGLSTATKDTYDALHMQALPPR
notes: member of group m46; also called 10G1-K RSR anti-DLL3 CAR with safety switch, on primary T cells
B4: 4H8 R2S (other)
CAR: GGGGSCPYSNPSLCGGGGSCPYSNPSLCGGGGSQVQLQQSGPGLVKPSQTLSLTCAISGDSVSSNSATWNWIRQSPSRGLEWLGRTYYRSKWYDDYAVSVKSRITINPDTSKNHLSLHLNSVTPEDTAVYYCAGGGLVGAPDGFDVWGQGTMVTVSSGGGGSGGGGSGGGGSGGGGSQSVLTQPPSASGTPGQRVTISCSGSSSNIGSDPVNWYQQLPGTAPKLLIYSNNQRPSGVPDRFSGSKSGTSASLAISGLQSEDEADYYCSAWDDSLNGYVFGTGTKVTVLTTTPAPRPPTPAPTIASQPLSLRPEACRPAAGGAVHTRGLDFACDIYIWAPLAGTCGVLLLSLVITKRGRKKLLYIFKQPFMRPVQTTQEEDGCSCRFPEEEEGGCELRVKFSRSADAPAYQQGQNQLYNELNLGRREEYDVLDKRRGRDPEMGGKPRRKNPQEGLYNELQKDKMAEAYSEIGMKGERRRGKGHDGLYQGLSTATKDTYDALHMQALPPR
notes: member of group m45; also called 4H8-R2S anti-DLL3 CAR with safety switch, on primary T cells
B5: 2G1 R2S (other)
CAR: GGGGSCPYSNPSLCGGGGSCPYSNPSLCGGGGSQLQLQESGPGLVKPSETLSLTCTVSGGSISSSSYYWGWIRQPPGKGLEWIGSIYYSGNIYHNPSLKSRVSISVDTSKNQFSLRLSSVTAADTAVYYCAREIIVGATHFDYWGQGTLVTVSSGGGGSGGGGSGGGGSGGGGSAIQMTQSPSSLSASVGDRVTITCRASQGIRNDLGWYQQKPGKAPELLIYAASSLQSGVPSRFSGSGSGTDFTLTISSLQPEDFATYYCLQDYNYPLTFGPGTKVDIKTTTPAPRPPTPAPTIASQPLSLRPEACRPAAGGAVHTRGLDFACDIYIWAPLAGTCGVLLLSLVITKRGRKKLLYIFKQPFMRPVQTTQEEDGCSCRFPEEEEGGCELRVKFSRSADAPAYQQGQNQLYNELNLGRREEYDVLDKRRGRDPEMGGKPRRKNPQEGLYNELQKDKMAEAYSEIGMKGERRRGKGHDGLYQGLSTATKDTYDALHMQALPPR
notes: member of group m44; also called 2G1-R2S anti-DLL3 CAR with safety switch, on primary T cells
B6: anti-DLL3 antibody 4F9 (antibody, V domains shown)
VH: QVQLQQWGAGLLKPSETLSLTCAVYGGSFSGYYWTWIRQPPGKGLEWIGEITHSGSTNYNPSLKSRVSISVDTSKNQFSLKLSSVTAADTAVYYCARGEYGSGSRFDYWGQGTLVTVSS
VL: AIQMTQSPSSLSASVGDRVAITCRASQGIRDDLGWYQQKPGKAPKLLIYAASSLQSGVPSRFSGSGSDTDFTLTISSLQPEDFATYYCLQDYDYPLTFGGGTKVEIK
B7: anti-DLL3 antibody 4G9 (antibody, V domains shown)
VH: QVQLQQWGAGLLKPSETLSLTCAVYGGSFSGYYWSWIRQPPGKGLEWIGEITHSGSTNYNPSLKSRVSISVDTSKNQFSLKLSSVTAADTAVYYCARGEYGSGSRFDYWGQGTLVTVSS
VL: AIQMTQSPSSLSASVGDRVALTCRASQGIRDDLGWYQQKPGKAPKLLIYAASSLQSGVPSRFSGSGSDTDFTLTISSLQPEDFATYYCLQDYDYPLTFGGGTKVEIK
B8: anti-DLL3 antibody 11H7 (antibody, V domains shown)
VH: QVQLQQWGAGLLKPSETLSLTCAVYGGSFSAYYWNWIRQPPGKGLEWIGEINHSGSTNYNPSLKSRVTISVDTSKNQFSLNLTSLTAADTAVYYCARGLDSSGWYPFDYWGQGTLVTVSS
VL: DIQMTQSPSSVSASVGDRVTITCRASQGISSWLAWYQQKPGKAPKLLIYAASSLQSGVPSRFSGSGSGTDFTLTISSLQPEDFATYYCQQADSFPFTFGPGTKVDIK
B9: anti-DLL3 antibody 9H12-K (antibody, V domains shown)
VH: QVQLVQSGAEVKKPGASVKVSCKASGYTFTGYSIHWVRQAPGQGLEWMGWINPNSGGTFYAQKFQGRVTMTRDTSISTVYMELSRLRSDDTAVYYCARDGWGDYYYYGLDVWGQGTTVTVSL
VL: DIQMTQSPSSVSASVGDRVTITCRASQDISSWLAWYQQKPGKAPKLLIYTASSLQGGVPSRFSGSGSGTDFTLTISSLQPEDLATYSCQQANVFPYTFGQGTKLEIK
B10: anti-DLL3 antibody 16H7 (antibody, V domains shown)
VH: QVQLQQWGAGLLKPSETLSLTCAVFGGSFSGDYWSWIRQPPGKGLEWIGEINHSGITSFNPSLKSRVTISVDTSKNQFSLKLSSVTAADTAVYYCARGELGIPDNWGQGTLVTVSS
VL: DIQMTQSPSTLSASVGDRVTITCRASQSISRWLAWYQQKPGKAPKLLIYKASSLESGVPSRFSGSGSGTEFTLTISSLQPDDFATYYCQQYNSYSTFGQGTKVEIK
B11: anti-DLL3 antibody 2C3 (antibody, V domains shown)
VH: QVQLQQWGGGLLKPSETLSLTCAVYGGSSSGNYWSWIRQPPGKRLEWIGEINHSGTTSYNPSLKSRVTISVDTSKNQFSLKLSSVTAADTAVYYCARGELGIADSWGQGTLVTVSS
VL: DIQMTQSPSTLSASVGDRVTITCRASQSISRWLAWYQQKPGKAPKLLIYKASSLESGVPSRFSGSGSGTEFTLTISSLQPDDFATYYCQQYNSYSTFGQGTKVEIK

For the first assay, the target named is T1, Flag tagged recombinant DLL3 (Adipogen). Kind of assay: flow cytometry, primary T cells with the CAR, Flag tagged recombinant DLL3, PE anti-Flag. For orientation: In flow cytometry, cells or beads pass a laser one at a time.
With B1, the “Rec-DLL3+ gate, percent of live CD3+ cells” value (“Rec-DLL3+ gate, percent” for short) came to 51.9%.
Consider B2, for which the “Rec-DLL3+ gate, percent” value came out at 60.7%.
Take B3: the “Rec-DLL3+ gate, percent” value amounted to 42.7%.
Still for that read-out and setting: the value for B4 was 58.6%; that for B5 was 66%.

The target of the next assay is T2, full length human DLL3 with N-terminal …. Kind of assay: flow cytometry on CHO cells with full length and truncated human DLL3; column Binds to DLL3 Domain.
Procedure: The samples were analyzed by flow cytometry. […] Signals from the PE channel are shown on the x-axis and counts are shown on the y-axis.
Regarding B6, the binding result was “binds”.
Take B7: the binding result was “binds”.
Turning to B8, the binding result is on record as “binds”.
Regarding B9, the binding result is “binds”.
On the same count and under the same terms, the value for B10 was “binds”.
With B11, the binding result is “binds”.
